Key:
Assay in all cases: no ligand; PBM; 270 nM : 90 nM RXRa; PBS pH 7.4, 2% milk, 0.02% Triton X-100, 1 mM DTT, BSA, 0.4 mg/ml salmon testes DNA
[1] = target: RARa:RXRa (Homo sapiens, UniProt P10276;P19793 full;full); conditions: tags: His kept;His cleaved; copies: 1;1; label: surface-attached array probe
Outline: (§1)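 Binding z-scores were set against random background probes. The data came from custom Agilent 4×180K protein-binding microarrays carrying double-stranded probes with 34-nt variable regions, incubated 1 h with ligand-free nuclear receptor dimers. Partner-specific antibodies detected binding, and scanned fluorescence was regression-normalized.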

[2] = target: RARg:RXRa (Homo sapiens, UniProt P13631;P19793 full;full); conditions: tags: His kept;His cleaved; copies: 1;1; label: surface-attached array probe
Outline: as §1

[3] = target: PPARa:RXRa (Homo sapiens, UniProt Q07869;P19793 full;full); conditions: tags: GST kept;His cleaved; copies: 1;1; label: surface-attached array probe
Outline: as §1

Chain of RARg:RXRa (P13631 whole entry, chain 1 of 2): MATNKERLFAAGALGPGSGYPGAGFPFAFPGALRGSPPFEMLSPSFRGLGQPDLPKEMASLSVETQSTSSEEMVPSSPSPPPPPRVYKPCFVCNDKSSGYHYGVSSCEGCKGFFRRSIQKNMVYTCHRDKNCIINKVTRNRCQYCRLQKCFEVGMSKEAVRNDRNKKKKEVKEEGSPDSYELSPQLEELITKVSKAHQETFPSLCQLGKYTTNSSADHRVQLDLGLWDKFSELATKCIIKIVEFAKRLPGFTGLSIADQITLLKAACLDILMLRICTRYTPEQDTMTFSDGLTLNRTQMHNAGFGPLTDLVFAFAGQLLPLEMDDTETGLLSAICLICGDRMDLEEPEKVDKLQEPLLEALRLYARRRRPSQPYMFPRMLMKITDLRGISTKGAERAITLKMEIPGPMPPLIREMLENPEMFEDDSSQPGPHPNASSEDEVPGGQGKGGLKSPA
Chain of RARg:RXRa (P19793 whole entry, chain 2 of 2): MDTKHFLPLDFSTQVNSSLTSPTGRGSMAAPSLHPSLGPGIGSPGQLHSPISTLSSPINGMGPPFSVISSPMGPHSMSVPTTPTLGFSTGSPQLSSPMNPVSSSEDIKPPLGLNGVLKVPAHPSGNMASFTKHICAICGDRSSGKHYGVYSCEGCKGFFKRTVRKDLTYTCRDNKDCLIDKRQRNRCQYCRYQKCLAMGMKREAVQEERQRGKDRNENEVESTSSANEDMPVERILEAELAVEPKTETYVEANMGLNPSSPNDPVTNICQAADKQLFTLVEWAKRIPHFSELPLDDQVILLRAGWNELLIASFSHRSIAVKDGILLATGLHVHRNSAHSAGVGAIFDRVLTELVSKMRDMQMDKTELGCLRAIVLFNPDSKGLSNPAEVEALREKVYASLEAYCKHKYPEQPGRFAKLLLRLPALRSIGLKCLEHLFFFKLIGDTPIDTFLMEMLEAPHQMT
Chain of RARa:RXRa (P10276 whole entry, chain 1 of 2): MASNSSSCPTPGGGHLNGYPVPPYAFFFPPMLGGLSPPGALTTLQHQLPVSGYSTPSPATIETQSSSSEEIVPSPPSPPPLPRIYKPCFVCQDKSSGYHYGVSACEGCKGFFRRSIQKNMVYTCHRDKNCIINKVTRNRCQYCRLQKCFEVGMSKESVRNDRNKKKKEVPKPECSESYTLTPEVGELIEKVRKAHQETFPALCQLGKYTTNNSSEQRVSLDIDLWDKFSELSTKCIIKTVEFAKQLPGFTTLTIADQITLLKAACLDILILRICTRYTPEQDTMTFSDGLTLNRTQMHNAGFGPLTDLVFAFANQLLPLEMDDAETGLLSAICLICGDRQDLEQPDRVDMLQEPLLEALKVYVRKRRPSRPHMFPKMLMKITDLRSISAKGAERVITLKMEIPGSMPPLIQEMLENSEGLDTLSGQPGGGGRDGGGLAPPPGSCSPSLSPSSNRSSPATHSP
Chain of RARa:RXRa (P19793 whole entry, chain 2 of 2): as the sequence (P19793 whole entry, chain 2 of 2) above
Chain of PPARa:RXRa (Q07869 whole entry, chain 1 of 2): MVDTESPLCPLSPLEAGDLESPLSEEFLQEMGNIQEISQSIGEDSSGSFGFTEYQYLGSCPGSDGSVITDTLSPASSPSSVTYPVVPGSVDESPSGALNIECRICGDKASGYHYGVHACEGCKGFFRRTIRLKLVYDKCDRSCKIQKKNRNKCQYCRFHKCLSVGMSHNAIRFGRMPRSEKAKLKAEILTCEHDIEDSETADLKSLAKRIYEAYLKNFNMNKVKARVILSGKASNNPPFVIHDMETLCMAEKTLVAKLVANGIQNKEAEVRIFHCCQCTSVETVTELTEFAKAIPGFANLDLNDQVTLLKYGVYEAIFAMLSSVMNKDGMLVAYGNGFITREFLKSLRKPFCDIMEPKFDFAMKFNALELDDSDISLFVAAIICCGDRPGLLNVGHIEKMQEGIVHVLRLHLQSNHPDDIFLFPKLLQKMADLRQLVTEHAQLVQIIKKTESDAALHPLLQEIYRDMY
Chain of PPARa:RXRa (P19793 whole entry, chain 2 of 2): as the sequence (P19793 whole entry, chain 2 of 2) above

Binder	binding signal [1]	binding signal [2]	binding signal [3]
NRC3_random_hg19_382_o1 (dsDNA) DNA 1: GCAATGAAGTGGATGCATGGTTGGTGGCTCAGCAGCGCGATTGACAGCGTAGAATGAAGG DNA 2: CCTTCATTCTACGCTGTCAATCGCGCTGCTGAGCCACCAACCATGCATCCACTTCATTGC	-0.69 PBM z-score against 500 random probes	–	–
NRC3_wobSeed27_DR1_G17C_o1 (dsDNA) DNA 1: GCACTCGGAGGACAAACGTCAGAGCTACGCCAGTGAGCGATTGACAGCGTAGAATGAAGG DNA 2: CCTTCATTCTACGCTGTCAATCGCTCACTGGCGTAGCTCTGACGTTTGTCCTCCGAGTGC	-0.3 PBM z-score against 500 random probes	0.21 PBM z-score against 500 random probes	–
NRC3_wobSeed124_DR5_C24G_o1 (dsDNA) DNA 1: GCCCTACTGGGCCATTCAGAGGTGATTGATCATATGGCGATTGACAGCGTAGAATGAAGG DNA 2: CCTTCATTCTACGCTGTCAATCGCCATATGATCAATCACCTCTGAATGGCCCAGTAGGGC	0.45 PBM z-score against 500 random probes	–	–
NRC3_wobSeed134_DR5_A9C_o1 (dsDNA) DNA 1: GCGCTGCTCGGTCAACTGATGGTCAGCTAAAGCTCGGCGATTGACAGCGTAGAATGAAGG DNA 2: CCTTCATTCTACGCTGTCAATCGCCGAGCTTTAGCTGACCATCAGTTGACCGAGCAGCGC	0.23 PBM z-score against 500 random probes	–	0.3 PBM z-score against 500 random probes
NRC3_wobSeed10_DR0_C13A_o1 (dsDNA) DNA 1: GCATCGAAAGGTAGAGGTGAGTATAGAGAAAGGGAAGCGATTGACAGCGTAGAATGAAGG DNA 2: CCTTCATTCTACGCTGTCAATCGCTTCCCTTTCTCTATACTCACCTCTACCTTTCGATGC	0.4 PBM z-score against 500 random probes	–	–
NRC3_random_hg19_271_o1 (dsDNA) DNA 1: GCCTCCCTCCCATCGCCTGAACCTGCTGGAATGAGCGCGATTGACAGCGTAGAATGAAGG DNA 2: CCTTCATTCTACGCTGTCAATCGCGCTCATTCCAGCAGGTTCAGGCGATGGGAGGGAGGC	0.16 PBM z-score against 500 random probes	–	0.08 PBM z-score against 500 random probes
NRC3_wobSeed30_DR1_G16C_o1 (dsDNA) DNA 1: GCACTAGCAGGCCAACGGTCACTCAAGATTAGTCCGGCGATTGACAGCGTAGAATGAAGG DNA 2: CCTTCATTCTACGCTGTCAATCGCCGGACTAATCTTGAGTGACCGTTGGCCTGCTAGTGC	0.08 PBM z-score against 500 random probes	–	–
NRC3_random_hg19_454_o1 (dsDNA) DNA 1: GCTGTCCTTTGTAGCAACATGTATGGAAATGGAGGCGCGATTGACAGCGTAGAATGAAGG DNA 2: CCTTCATTCTACGCTGTCAATCGCGCCTCCATTTCCATACATGTTGCTACAAAGGACAGC	0.46 PBM z-score against 500 random probes	–	–
NRC3_random_hg19_470_o1 (dsDNA) DNA 1: GCCAGGAAGGGACAAAGGCCAGGCATGGTGGTTCATGCGATTGACAGCGTAGAATGAAGG DNA 2: CCTTCATTCTACGCTGTCAATCGCATGAACCACCATGCCTGGCCTTTGTCCCTTCCTGGC	-0.18 PBM z-score against 500 random probes	–	–
NRC3_random_hg19_496_o1 (dsDNA) DNA 1: GCAGCATCTGACAAGGCTGACTACTCCCATCTGGATGCGATTGACAGCGTAGAATGAAGG DNA 2: CCTTCATTCTACGCTGTCAATCGCATCCAGATGGGAGTAGTCAGCCTTGTCAGATGCTGC	-0.43 PBM z-score against 500 random probes	–	–
NRC3_random_hg19_40_o1 (dsDNA) DNA 1: GCAAGAACCAGTGGATTCATAAGGGTGACAGTTCAGGCGATTGACAGCGTAGAATGAAGG DNA 2: CCTTCATTCTACGCTGTCAATCGCCTGAACTGTCACCCTTATGAATCCACTGGTTCTTGC	0.33 PBM z-score against 500 random probes	–	–
NRC3_wobSeed99_DR4_A24C_o1 (dsDNA) DNA 1: GCTCTCGGAGGACACGAAAGGTCCGAGCTCGACATCGCGATTGACAGCGTAGAATGAAGG DNA 2: CCTTCATTCTACGCTGTCAATCGCGATGTCGAGCTCGGACCTTTCGTGTCCTCCGAGAGC	0.41 PBM z-score against 500 random probes	–	–
NRC3_random_hg19_146_o1 (dsDNA) DNA 1: GCGCCTCTAGGTCTTTGAGGAATTGCCACACTGTCTGCGATTGACAGCGTAGAATGAAGG DNA 2: CCTTCATTCTACGCTGTCAATCGCAGACAGTGTGGCAATTCCTCAAAGACCTAGAGGCGC	-0.8 PBM z-score against 500 random probes	–	–
NRC3_wobSeed42_DR1_T12A_o1 (dsDNA) DNA 1: GCTATACAGGGACAAAGGCCAGAGTACGAATGTCGAGCGATTGACAGCGTAGAATGAAGG DNA 2: CCTTCATTCTACGCTGTCAATCGCTCGACATTCGTACTCTGGCCTTTGTCCCTGTATAGC	0.27 PBM z-score against 500 random probes	–	–
NRC3_wobSeed114_DR4_T12C_o1 (dsDNA) DNA 1: GCAATACAGGGCCATCGTAGGCCAGAGTACGCACAGGCGATTGACAGCGTAGAATGAAGG DNA 2: CCTTCATTCTACGCTGTCAATCGCCTGTGCGTACTCTGGCCTACGATGGCCCTGTATTGC	-0.01 PBM z-score against 500 random probes	–	–
NRC3_random_hg19_267_o1 (dsDNA) DNA 1: GCGCCTCAGTCATGAGTCACATGAAAGTGACTCACCGCGATTGACAGCGTAGAATGAAGG DNA 2: CCTTCATTCTACGCTGTCAATCGCGGTGAGTCACTTTCATGTGACTCATGACTGAGGCGC	-0.31 PBM z-score against 500 random probes	–	–
NRC3_random_hg19_466_o1 (dsDNA) DNA 1: GCAGCTTGACTTTGGTGACATTCTTCCTTCGTCCCTGCGATTGACAGCGTAGAATGAAGG DNA 2: CCTTCATTCTACGCTGTCAATCGCAGGGACGAAGGAAGAATGTCACCAAAGTCAAGCTGC	0.17 PBM z-score against 500 random probes	–	–
NRC3_random_hg19_362_o1 (dsDNA) DNA 1: GCGCCTTCTGCACCTCCTCAGTCCCTCTCCCTTTCCGCGATTGACAGCGTAGAATGAAGG DNA 2: CCTTCATTCTACGCTGTCAATCGCGGAAAGGGAGAGGGACTGAGGAGGTGCAGAAGGCGC	0.1 PBM z-score against 500 random probes	-0.73 PBM z-score against 500 random probes	–
NRC3_wobSeed32_DR1_G18A_o1 (dsDNA) DNA 1: GCTCTTGTAGATCAAAGATTAAGAAAGCCGAAGCCTGCGATTGACAGCGTAGAATGAAGG DNA 2: CCTTCATTCTACGCTGTCAATCGCAGGCTTCGGCTTTCTTAATCTTTGATCTACAAGAGC	0.26 PBM z-score against 500 random probes	–	–
NRC3_random_hg19_116_o1 (dsDNA) DNA 1: GCTGGGCACATGAGGGATGGGAGTTGATCTCTGTGGGCGATTGACAGCGTAGAATGAAGG DNA 2: CCTTCATTCTACGCTGTCAATCGCCCACAGAGATCAACTCCCATCCCTCATGTGCCCAGC	-0.48 PBM z-score against 500 random probes	–	–
NRC3_wobSeed120_DR4_G21C_o1 (dsDNA) DNA 1: GCCCGAGTAGGTTACGAGGGCGCATTCAGTGCGAATGCGATTGACAGCGTAGAATGAAGG DNA 2: CCTTCATTCTACGCTGTCAATCGCATTCGCACTGAATGCGCCCTCGTAACCTACTCGGGC	0.37 PBM z-score against 500 random probes	–	–
NRC3_random_hg19_489_o1 (dsDNA) DNA 1: GCAACAAAGCCTGTATGACAGCACATCTGTGTACAGGCGATTGACAGCGTAGAATGAAGG DNA 2: CCTTCATTCTACGCTGTCAATCGCCTGTACACAGATGTGCTGTCATACAGGCTTTGTTGC	-0.79 PBM z-score against 500 random probes	-0.12 PBM z-score against 500 random probes	–
NRC3_random_hg19_349_o1 (dsDNA) DNA 1: GCAGTGTATGCTAAACACCTTCACTTACCTTCCTCAGCGATTGACAGCGTAGAATGAAGG DNA 2: CCTTCATTCTACGCTGTCAATCGCTGAGGAAGGTAAGTGAAGGTGTTTAGCATACACTGC	-0.1 PBM z-score against 500 random probes	0.03 PBM z-score against 500 random probes	–
NRC3_wobSeed122_DR5_T9A_o1 (dsDNA) DNA 1: GCGCTAGTAGGTCAGTAAAAGGTCACACACCGGTCGGCGATTGACAGCGTAGAATGAAGG DNA 2: CCTTCATTCTACGCTGTCAATCGCCGACCGGTGTGTGACCTTTTACTGACCTACTAGCGC	7.6 PBM z-score against 500 random probes	7.87 PBM z-score against 500 random probes	–
NRC3_wobSeed136_DR5_C23T_o1 (dsDNA) DNA 1: GCTAGCCTAGGTCATTCAGGGGTCAGTATAGAAAGCGCGATTGACAGCGTAGAATGAAGG DNA 2: CCTTCATTCTACGCTGTCAATCGCGCTTTCTATACTGACCCCTGAATGACCTAGGCTAGC	7.49 PBM z-score against 500 random probes	8.33 PBM z-score against 500 random probes	–
NRC3_wobSeed66_DR2_G9C_o1 (dsDNA) DNA 1: GCAATACACGGTCACTAGGCCAGAGTAGGTACGAATGCGATTGACAGCGTAGAATGAAGG DNA 2: CCTTCATTCTACGCTGTCAATCGCATTCGTACCTACTCTGGCCTAGTGACCGTGTATTGC	0.46 PBM z-score against 500 random probes	–	–
NRC3_wobSeed93_DR3_A9C_o1 (dsDNA) DNA 1: GCAGTCAACGTTCATCTAGGTAACGTAAGATATGCTGCGATTGACAGCGTAGAATGAAGG DNA 2: CCTTCATTCTACGCTGTCAATCGCAGCATATCTTACGTTACCTAGATGAACGTTGACTGC	0.24 PBM z-score against 500 random probes	–	–
NRC3_random_hg19_279_o1 (dsDNA) DNA 1: GCTGCAGTGGTAACAGTCTGACTTCTAAACTGCTATGCGATTGACAGCGTAGAATGAAGG DNA 2: CCTTCATTCTACGCTGTCAATCGCATAGCAGTTTAGAAGTCAGACTGTTACCACTGCAGC	-0.56 PBM z-score against 500 random probes	–	–
NRC3_wobSeed76_DR3_T21G_o1 (dsDNA) DNA 1: GCCCTACTGGGCCAAAAAGGGCATTGATGCCGATAAGCGATTGACAGCGTAGAATGAAGG DNA 2: CCTTCATTCTACGCTGTCAATCGCTTATCGGCATCAATGCCCTTTTTGGCCCAGTAGGGC	-0.04 PBM z-score against 500 random probes	–	–
NRC3_random_hg19_133_o1 (dsDNA) DNA 1: GCTCAAGGAGAAAGACACTCCTTTGAAGCGTTGGAAGCGATTGACAGCGTAGAATGAAGG DNA 2: CCTTCATTCTACGCTGTCAATCGCTTCCAACGCTTCAAAGGAGTGTCTTTCTCCTTGAGC	-0.29 PBM z-score against 500 random probes	–	–
